This is an account of results in US20110236427A1 (MEDIZINISCHE UNIVERSITAT INNSBRUCK, published 2011).

Assay [1] concerns the target T1, endogenous PKCtheta from Jurkat T cell lysates (human, UniProt Q04759 1-706).
T1 construct: Detected by immunoblot with an anti-PKCtheta antibody (Cell Signalling) after the GST pull down
Kind of assay: GST pull down from Jurkat T cell lysates, immunoblot. Here is the method:
(§1) GST pull down assay: 1×10⁷ Jurkat T cells were lysed in 1 ml lysis buffer (25 mM MES pH6.5, 5 mM NaF, 1 mM Na₃VO₄, 2 mM EDTA, 150 mM NaCl, 0.5% TritonX-100, 50 μg/ml aprotinin and leupeptin). Lysates were precleared for 30 min at 4° C. Thereafter incubation with purified recombinant GST-NR2F6 fusion proteins for 3 h at 4° C., 5× washing in lysis buffer, SDS-PAGE under reducing conditions on Bis/Tris-buffered gels (Novex, San Diego, Calif.) was performed. Proteins were transferred onto a polyvinyl-difluoridon (PVDF) membrane (Millipore, Bedford, Mass.) by semi-dry blotting (90 mA, 80 min, 4° C.). […] Peroxidase-conjugated antibodies (Pierce, Rockford, Ill.) served as secondary reagent (1:5,000). For antigen detection enhanced chemiluminescence was used (Super Signal, Pierce, Rockford, Ill.).
Background: In western blotting, separated proteins are transferred to a membrane and probed.

The target of assay [2] is T2, endogenous PKCalpha from Jurkat T cell lysates (human, UniProt P17252 2-672).
T2 construct: Detected by immunoblot with an anti-PKCalpha antibody (UBI) after the GST pull down; also called PKCα
The description is as above. Here is the method: as §1

T1 sequence (Q04759 whole entry): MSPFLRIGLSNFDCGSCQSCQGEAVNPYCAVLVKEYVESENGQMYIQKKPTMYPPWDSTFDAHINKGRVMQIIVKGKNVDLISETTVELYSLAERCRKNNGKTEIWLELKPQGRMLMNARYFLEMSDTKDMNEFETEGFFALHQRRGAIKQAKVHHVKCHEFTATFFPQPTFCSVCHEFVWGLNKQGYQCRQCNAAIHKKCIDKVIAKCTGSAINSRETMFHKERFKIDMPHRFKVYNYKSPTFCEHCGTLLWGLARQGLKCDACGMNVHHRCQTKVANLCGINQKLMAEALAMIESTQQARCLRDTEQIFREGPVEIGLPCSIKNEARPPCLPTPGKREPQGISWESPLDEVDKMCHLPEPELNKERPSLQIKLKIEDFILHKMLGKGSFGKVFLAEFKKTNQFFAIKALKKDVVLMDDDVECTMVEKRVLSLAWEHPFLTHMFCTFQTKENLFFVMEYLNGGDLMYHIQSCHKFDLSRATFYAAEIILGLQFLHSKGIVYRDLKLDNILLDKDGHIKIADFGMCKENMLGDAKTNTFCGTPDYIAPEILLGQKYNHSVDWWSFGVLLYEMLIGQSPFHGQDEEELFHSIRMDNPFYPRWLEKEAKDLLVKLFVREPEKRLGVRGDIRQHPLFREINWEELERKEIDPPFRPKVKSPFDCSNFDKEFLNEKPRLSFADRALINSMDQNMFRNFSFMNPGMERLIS

B1: GST-NR2F6 fusion protein, full-length, wild-type (other)
chain: MAMVTGGWGGPGGDTNGVDKAGGYPRAAEDDSASPPGAASDAEPGDEERPGLQVDCVVCGDKSSGKHYGVFTCEGCKSFFKRSIRRNLSYTCRSNRDCQIDQHHRNQCQYCRLKKCFRVGMRKEAVQRGRIPHSLPGAVAASSGSPPGSALAAVASGGDLFPGQPVSELIAQLLRAEPYPAAAGRFGAGGGAAGAVLGIDNVCELAARLLFSTVEWARHAPFFPELPVADQVALLRLSWSELFVLNAAQAALPLHTAPLLAAAGLHAAPMAAERAVAFMDQVRAFQEQVDKLGRLQVDSAEYGCLKAIALFTPDACGLSDPAHVESLQEKAQVALTEYVRAQYPSQPQRFGRLLLRLPALRAVPASLISQLFFMRLVGKTPIETLIRDMLLSGSTFNWPYGSGQ
notes: Purified recombinant fusion protein, used as bait in the GST pull down from Jurkat T cell lysates and as substrate in the in vitro kinase assay; also called recombinant NR2F6; purified recombinant GST-NR2F6; not shown: GST tag; N-terminal position inferred from the name GST-NR2F6
B1: the binding result in assay [1] and in assay [2] was “binds” each time.
